Key:
Test in all cases: cell-based or functional assay
[1] = biological target: human FGFR2c/βKlotho receptor (human) (UniProt P21802)
[2] = biological target: human FGFR4/βKlotho receptor (human) (UniProt P22455)
[3] = biological target: cynomolgus monkey FGFR1c/βKlotho receptor (cynomolgus monkey)
[4] = biological target: human FGFR3c/βKlotho receptor (human) (UniProt P22607)
[5] = biological target: human FGFR1c/βKlotho receptor (human) (UniProt P11362)
Sequence of human FGFR1c/βKlotho receptor (human) (P11362 22-822, chain 1 of 2): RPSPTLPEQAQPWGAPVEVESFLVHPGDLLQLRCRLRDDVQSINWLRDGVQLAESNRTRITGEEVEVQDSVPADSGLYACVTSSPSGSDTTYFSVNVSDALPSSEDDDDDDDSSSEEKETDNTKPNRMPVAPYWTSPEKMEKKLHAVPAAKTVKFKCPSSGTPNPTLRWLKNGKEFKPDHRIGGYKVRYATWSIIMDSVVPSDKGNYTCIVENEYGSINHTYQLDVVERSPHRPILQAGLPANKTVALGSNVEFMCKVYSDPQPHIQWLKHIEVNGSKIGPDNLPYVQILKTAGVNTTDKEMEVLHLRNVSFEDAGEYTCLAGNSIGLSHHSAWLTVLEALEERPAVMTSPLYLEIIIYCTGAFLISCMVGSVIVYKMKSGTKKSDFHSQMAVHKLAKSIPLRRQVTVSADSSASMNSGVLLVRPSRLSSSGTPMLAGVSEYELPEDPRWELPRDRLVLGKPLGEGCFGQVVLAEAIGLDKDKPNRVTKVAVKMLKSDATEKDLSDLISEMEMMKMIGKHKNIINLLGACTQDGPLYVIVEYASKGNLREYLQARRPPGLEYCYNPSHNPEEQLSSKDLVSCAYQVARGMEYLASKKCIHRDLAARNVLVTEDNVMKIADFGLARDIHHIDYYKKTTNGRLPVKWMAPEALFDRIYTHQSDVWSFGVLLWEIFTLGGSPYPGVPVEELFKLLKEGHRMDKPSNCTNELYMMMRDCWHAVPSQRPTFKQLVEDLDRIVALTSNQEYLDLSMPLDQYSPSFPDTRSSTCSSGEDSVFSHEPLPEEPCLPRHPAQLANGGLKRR
Sequence of human FGFR1c/βKlotho receptor (human) (chain, as listed by the source, chain 2 of 2): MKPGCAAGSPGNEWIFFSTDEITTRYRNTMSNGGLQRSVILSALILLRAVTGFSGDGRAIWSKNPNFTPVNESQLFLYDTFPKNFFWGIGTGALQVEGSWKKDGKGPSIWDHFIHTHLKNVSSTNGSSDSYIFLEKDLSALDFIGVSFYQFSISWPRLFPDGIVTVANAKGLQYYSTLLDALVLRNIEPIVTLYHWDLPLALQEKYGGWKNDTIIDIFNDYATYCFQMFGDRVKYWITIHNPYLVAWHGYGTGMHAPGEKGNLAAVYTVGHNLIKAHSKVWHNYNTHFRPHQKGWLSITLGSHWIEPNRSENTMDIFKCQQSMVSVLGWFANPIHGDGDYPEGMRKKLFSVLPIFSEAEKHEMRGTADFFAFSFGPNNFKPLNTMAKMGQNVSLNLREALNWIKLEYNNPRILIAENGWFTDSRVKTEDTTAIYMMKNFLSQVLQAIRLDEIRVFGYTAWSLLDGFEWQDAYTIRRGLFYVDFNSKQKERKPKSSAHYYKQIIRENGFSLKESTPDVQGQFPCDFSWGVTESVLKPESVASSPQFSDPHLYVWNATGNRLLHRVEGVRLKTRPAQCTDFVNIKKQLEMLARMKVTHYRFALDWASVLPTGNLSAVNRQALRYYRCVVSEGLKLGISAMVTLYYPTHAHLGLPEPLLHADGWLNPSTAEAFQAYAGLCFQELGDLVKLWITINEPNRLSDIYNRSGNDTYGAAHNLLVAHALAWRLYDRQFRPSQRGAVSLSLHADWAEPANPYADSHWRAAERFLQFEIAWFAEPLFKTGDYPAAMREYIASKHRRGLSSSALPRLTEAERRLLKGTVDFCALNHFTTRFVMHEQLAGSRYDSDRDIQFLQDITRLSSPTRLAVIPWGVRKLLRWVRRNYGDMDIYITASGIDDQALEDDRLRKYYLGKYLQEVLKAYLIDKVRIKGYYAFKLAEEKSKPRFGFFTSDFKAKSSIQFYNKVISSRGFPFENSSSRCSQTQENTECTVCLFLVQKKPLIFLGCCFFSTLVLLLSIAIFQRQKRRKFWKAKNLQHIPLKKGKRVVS

Sequence of human FGFR3c/βKlotho receptor (human) (P22607 23-806, chain 1 of 2): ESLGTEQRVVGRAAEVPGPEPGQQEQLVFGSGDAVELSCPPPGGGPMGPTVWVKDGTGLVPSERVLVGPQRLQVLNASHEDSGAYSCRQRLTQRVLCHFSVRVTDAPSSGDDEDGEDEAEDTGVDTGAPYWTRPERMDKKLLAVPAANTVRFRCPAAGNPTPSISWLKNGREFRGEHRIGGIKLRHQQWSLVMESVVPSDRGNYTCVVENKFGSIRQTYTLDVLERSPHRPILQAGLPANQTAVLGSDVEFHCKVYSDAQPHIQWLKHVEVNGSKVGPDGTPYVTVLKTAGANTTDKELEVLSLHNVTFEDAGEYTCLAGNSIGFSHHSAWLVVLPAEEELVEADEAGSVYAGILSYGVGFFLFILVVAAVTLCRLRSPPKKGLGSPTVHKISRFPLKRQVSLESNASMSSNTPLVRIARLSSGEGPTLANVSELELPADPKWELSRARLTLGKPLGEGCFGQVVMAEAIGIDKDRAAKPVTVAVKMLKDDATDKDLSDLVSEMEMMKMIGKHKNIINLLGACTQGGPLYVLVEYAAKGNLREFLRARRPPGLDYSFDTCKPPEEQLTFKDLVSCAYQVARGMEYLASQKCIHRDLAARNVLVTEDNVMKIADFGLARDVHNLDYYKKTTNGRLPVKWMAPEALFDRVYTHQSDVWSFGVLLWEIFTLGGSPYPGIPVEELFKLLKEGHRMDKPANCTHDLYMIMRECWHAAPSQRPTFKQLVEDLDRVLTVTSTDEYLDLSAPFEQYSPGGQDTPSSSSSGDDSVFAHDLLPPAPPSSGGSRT
Sequence of human FGFR3c/βKlotho receptor (human) (chain, as listed by the source, chain 2 of 2): as the sequence (chain, as listed by the source, chain 2 of 2) above
Sequence of human FGFR2c/βKlotho receptor (human) (P21802 22-821, chain 1 of 2): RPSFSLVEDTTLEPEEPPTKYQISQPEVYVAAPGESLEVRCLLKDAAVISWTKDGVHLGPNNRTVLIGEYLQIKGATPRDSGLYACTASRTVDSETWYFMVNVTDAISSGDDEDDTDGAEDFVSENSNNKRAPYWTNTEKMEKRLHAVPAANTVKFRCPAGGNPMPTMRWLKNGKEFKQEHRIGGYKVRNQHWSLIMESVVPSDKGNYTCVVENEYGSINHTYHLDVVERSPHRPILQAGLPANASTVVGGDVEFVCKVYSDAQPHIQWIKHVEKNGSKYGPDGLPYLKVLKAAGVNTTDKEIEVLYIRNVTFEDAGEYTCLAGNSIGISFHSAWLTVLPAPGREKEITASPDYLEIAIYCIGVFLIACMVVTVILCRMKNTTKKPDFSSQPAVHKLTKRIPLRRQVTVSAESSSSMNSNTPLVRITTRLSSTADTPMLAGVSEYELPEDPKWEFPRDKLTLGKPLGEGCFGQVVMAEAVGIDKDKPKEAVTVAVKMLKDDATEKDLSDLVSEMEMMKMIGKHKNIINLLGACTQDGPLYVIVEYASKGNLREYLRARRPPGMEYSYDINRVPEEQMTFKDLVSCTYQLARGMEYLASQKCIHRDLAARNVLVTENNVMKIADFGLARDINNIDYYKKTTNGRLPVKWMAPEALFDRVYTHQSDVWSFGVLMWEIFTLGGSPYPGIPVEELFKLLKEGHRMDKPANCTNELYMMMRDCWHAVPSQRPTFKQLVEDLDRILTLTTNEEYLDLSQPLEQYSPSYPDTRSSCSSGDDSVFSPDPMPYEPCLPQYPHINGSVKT
Sequence of human FGFR2c/βKlotho receptor (human) (chain, as listed by the source, chain 2 of 2): as the sequence (chain, as listed by the source, chain 2 of 2) above
Sequence of human FGFR4/βKlotho receptor (human) (P22455 22-802, chain 1 of 2): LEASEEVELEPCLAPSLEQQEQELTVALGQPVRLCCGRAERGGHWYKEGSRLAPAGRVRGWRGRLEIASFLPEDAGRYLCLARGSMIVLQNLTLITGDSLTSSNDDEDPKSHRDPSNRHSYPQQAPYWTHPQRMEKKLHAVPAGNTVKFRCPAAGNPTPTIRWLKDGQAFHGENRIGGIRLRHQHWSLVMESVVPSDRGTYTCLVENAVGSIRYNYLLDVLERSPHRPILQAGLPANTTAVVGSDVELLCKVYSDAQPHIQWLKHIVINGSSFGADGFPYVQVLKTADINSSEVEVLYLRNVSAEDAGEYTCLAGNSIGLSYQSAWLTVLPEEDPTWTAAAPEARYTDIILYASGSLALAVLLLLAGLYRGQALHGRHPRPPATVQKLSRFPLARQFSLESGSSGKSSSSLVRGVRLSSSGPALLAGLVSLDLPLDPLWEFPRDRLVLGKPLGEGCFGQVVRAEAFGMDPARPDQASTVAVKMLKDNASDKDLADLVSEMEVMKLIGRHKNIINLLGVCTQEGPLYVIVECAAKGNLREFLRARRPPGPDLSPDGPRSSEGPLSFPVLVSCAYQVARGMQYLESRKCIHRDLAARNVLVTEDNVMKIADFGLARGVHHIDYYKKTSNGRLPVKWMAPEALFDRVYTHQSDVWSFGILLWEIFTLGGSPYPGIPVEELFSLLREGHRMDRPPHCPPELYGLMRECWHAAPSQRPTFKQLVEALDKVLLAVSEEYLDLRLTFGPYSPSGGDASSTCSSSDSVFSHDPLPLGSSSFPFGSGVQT
Sequence of human FGFR4/βKlotho receptor (human) (chain, as listed by the source, chain 2 of 2): as the sequence (chain, as listed by the source, chain 2 of 2) above

EC50, luciferase reporter-based assay (receptor activation) [1]: 0.27 nM | EC50, luciferase reporter-based assay (receptor activation) [2]: 0.05 nM | EC50, luciferase reporter-based assay (receptor activation) [3]: 2.23 nM | EC50, luciferase reporter-based assay (receptor activation) [4]: 0.3 nM | EC50, luciferase reporter-based assay (receptor activation) [5]: 0.41 nM
Substance: FGF19 (from UniProt O95750 25-216) (ligand)

— patent US20250066509A1
